Assay results taken from article PMC314469, “Protein Interaction Networks by Proteome Peptide Scanning” (PLoS Biology, 2004).

T1: Boi2 SH3 (BOI2_YEAST), P39969
T1 chain: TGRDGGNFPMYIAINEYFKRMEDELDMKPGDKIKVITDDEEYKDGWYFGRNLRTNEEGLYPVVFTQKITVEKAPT

T2: Yhr016c SH3 (YSC84_YEAST), P32793
T2 chain: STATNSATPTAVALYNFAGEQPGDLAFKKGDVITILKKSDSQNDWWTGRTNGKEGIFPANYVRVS

T3: Boi1 SH3 (BOI1_YEAST), P38041
T3 chain: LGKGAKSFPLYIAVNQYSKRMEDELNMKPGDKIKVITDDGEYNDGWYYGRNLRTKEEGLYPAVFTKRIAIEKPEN

T4: Rvs167 SH3 (RV167_YEAST), P39743
T4 chain: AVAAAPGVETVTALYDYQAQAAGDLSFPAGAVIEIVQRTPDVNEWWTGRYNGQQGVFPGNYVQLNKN

T5: Myo5 SH3 (MYO5_YEAST), Q04439
T5 chain: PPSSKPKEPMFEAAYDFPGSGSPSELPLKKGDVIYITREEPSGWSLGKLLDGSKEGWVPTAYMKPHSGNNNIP

T6: Yfr024 SH3 (LSB3_YEAST), P43603
T6 chain: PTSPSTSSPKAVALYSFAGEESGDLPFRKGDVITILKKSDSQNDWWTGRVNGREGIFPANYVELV


Target: T1, Boi2 SH3 (BOI2_YEAST), P39969
Experiment: SPOT array

Row | normalised SPOT signal, Boehringer light units (BLU); mean over the file's lines of this peptide | Binder
1 | 40.8 | PSSHKRKPVIPWDA [YNL295W 201-214]
2 | 991 | PYMYKYLPRFPNLK [YPL137C 764-777]
3 | 85.6 | PVPVRMQPQPPQPM [YBR108W 383-396]
4 | 4.1 | PQQNRPLPQLPNRN [YOR181W 307-320]
5 | 60.1 | PPRFKNFPTLPSKI [YLL015W 59-72]
6 | 11.1 | QATGRRGPAPPPPP [YOR181W 378-391]
7 | 27.4 | PTANKYAPVSPTVQ [YPL085W 797-810]
8 | 743 | PQTMRQAPKRPDAD [YNL298W 493-506]
9 | 25.1 | PSRSKSNPILPIMR [YLR319C 684-697]
10 | 13.5 | PPSIRKQPIAPDVL [YJR092W 754-767]
11 | 8.5 | PSHYRNIPYNPATF [YBR194W 90-103]
12 | 35.9 | PVRSRVLPATPRQI [YKL086W 103-116]
13 | 17.2 | PRSKKKKPAPPTLL [YMR039C 165-178]
14 | 14.5 | PTVQKFSPHPPTTL [YER144C 362-375]
15 | 0.8 | PSSKKNKPNPPPGS [YJL056C 176-189]
16 | 21.6 | PSAMKLVPSIPPAT [YBR154C 118-131]

What follows are binders tested against Sho1 SH3 (SHO1_YEAST), P40073 (assay: SPOT array).
Chain of Sho1 SH3 (SHO1_YEAST), P40073 (P40073 295-366): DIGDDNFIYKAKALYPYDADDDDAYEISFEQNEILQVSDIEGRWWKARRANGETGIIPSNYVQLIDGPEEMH

Row | normalised SPOT signal, Boehringer light units (BLU); mean over the file's lines of this peptide | Binder
17 | 79.1 | PSSHKRKPVIPWDA [YNL295W 201-214]
18 | 1590 | PYMYKYLPRFPNLK [YPL137C 764-777]
19 | 71.7 | PVPVRMQPQPPQPM [YBR108W 383-396]
20 | 31600 | PQQNRPLPQLPNRN [YOR181W 307-320]
21 | 3830 | PPRFKNFPTLPSKI [YLL015W 59-72]
22 | 63.2 | QATGRRGPAPPPPP [YOR181W 378-391]
23 | 37.8 | PTANKYAPVSPTVQ [YPL085W 797-810]
24 | 121 | PQTMRQAPKRPDAD [YNL298W 493-506]
25 | 98.4 | PSRSKSNPILPIMR [YLR319C 684-697]
26 | 25.8 | PPSIRKQPIAPDVL [YJR092W 754-767]
27 | 65.2 | PSHYRNIPYNPATF [YBR194W 90-103]
28 | 28200 | PVRSRVLPATPRQI [YKL086W 103-116]
29 | 57.4 | PRSKKKKPAPPTLL [YMR039C 165-178]
30 | 44.4 | PTVQKFSPHPPTTL [YER144C 362-375]
31 | 72.1 | PSSKKNKPNPPPGS [YJL056C 176-189]
32 | 42.6 | PSAMKLVPSIPPAT [YBR154C 118-131]

Target: T2, Yhr016c SH3 (YSC84_YEAST), P32793
Experiment: SPOT array

Row | normalised SPOT signal, Boehringer light units (BLU); mean over the file's lines of this peptide | Binder
33 | 8.5 | PSSHKRKPVIPWDA [YNL295W 201-214]
34 | 432 | PYMYKYLPRFPNLK [YPL137C 764-777]
35 | 145 | PVPVRMQPQPPQPM [YBR108W 383-396]
36 | 50100 | PQQNRPLPQLPNRN [YOR181W 307-320]
37 | 87.6 | PPRFKNFPTLPSKI [YLL015W 59-72]
38 | 37.1 | QATGRRGPAPPPPP [YOR181W 378-391]
39 | 11.2 | PTANKYAPVSPTVQ [YPL085W 797-810]
40 | 6220 | PQTMRQAPKRPDAD [YNL298W 493-506]
41 | 70.1 | PSRSKSNPILPIMR [YLR319C 684-697]
42 | 29.6 | PPSIRKQPIAPDVL [YJR092W 754-767]
43 | 11.3 | PSHYRNIPYNPATF [YBR194W 90-103]
44 | 1380 | PVRSRVLPATPRQI [YKL086W 103-116]
45 | 37.5 | PRSKKKKPAPPTLL [YMR039C 165-178]
46 | 16 | PTVQKFSPHPPTTL [YER144C 362-375]
47 | 28 | PSSKKNKPNPPPGS [YJL056C 176-189]
48 | 63.3 | PSAMKLVPSIPPAT [YBR154C 118-131]

Target: T3, Boi1 SH3 (BOI1_YEAST), P38041
Experiment: SPOT array

Row | normalised SPOT signal, Boehringer light units (BLU); mean over the file's lines of this peptide | Binder
49 | 93.5 | PSSHKRKPVIPWDA [YNL295W 201-214]
50 | 177 | PYMYKYLPRFPNLK [YPL137C 764-777]
51 | 93.8 | PVPVRMQPQPPQPM [YBR108W 383-396]
52 | 3740 | PQQNRPLPQLPNRN [YOR181W 307-320]
53 | 572 | PPRFKNFPTLPSKI [YLL015W 59-72]
54 | 102 | QATGRRGPAPPPPP [YOR181W 378-391]
55 | 168 | PTANKYAPVSPTVQ [YPL085W 797-810]
56 | 350 | PQTMRQAPKRPDAD [YNL298W 493-506]
57 | 196 | PSRSKSNPILPIMR [YLR319C 684-697]
58 | 220 | PPSIRKQPIAPDVL [YJR092W 754-767]
59 | 188 | PSHYRNIPYNPATF [YBR194W 90-103]
60 | 2030 | PVRSRVLPATPRQI [YKL086W 103-116]
61 | 84.3 | PRSKKKKPAPPTLL [YMR039C 165-178]
62 | 58 | PTVQKFSPHPPTTL [YER144C 362-375]
63 | 571 | PSSKKNKPNPPPGS [YJL056C 176-189]
64 | 89.4 | PSAMKLVPSIPPAT [YBR154C 118-131]

Target: T4, Rvs167 SH3 (RV167_YEAST), P39743
Experiment: SPOT array

Row | normalised SPOT signal, Boehringer light units (BLU); mean over the file's lines of this peptide | Binder
65 | 52 | PSSHKRKPVIPWDA [YNL295W 201-214]
66 | 920 | PYMYKYLPRFPNLK [YPL137C 764-777]
67 | 70.5 | PVPVRMQPQPPQPM [YBR108W 383-396]
68 | 53800 | PQQNRPLPQLPNRN [YOR181W 307-320]
69 | 210 | PPRFKNFPTLPSKI [YLL015W 59-72]
70 | 30.1 | QATGRRGPAPPPPP [YOR181W 378-391]
71 | 93.3 | PTANKYAPVSPTVQ [YPL085W 797-810]
72 | 3750 | PQTMRQAPKRPDAD [YNL298W 493-506]
73 | 246 | PSRSKSNPILPIMR [YLR319C 684-697]
74 | 49.5 | PPSIRKQPIAPDVL [YJR092W 754-767]
75 | 27.8 | PSHYRNIPYNPATF [YBR194W 90-103]
76 | 10400 | PVRSRVLPATPRQI [YKL086W 103-116]
77 | 49.7 | PRSKKKKPAPPTLL [YMR039C 165-178]
78 | 20.8 | PTVQKFSPHPPTTL [YER144C 362-375]
79 | 40.5 | PSSKKNKPNPPPGS [YJL056C 176-189]
80 | 45.4 | PSAMKLVPSIPPAT [YBR154C 118-131]

Target: T5, Myo5 SH3 (MYO5_YEAST), Q04439
Experiment: SPOT array

Row | normalised SPOT signal, Boehringer light units (BLU); mean over the file's lines of this peptide | Binder
81 | 289 | PSSHKRKPVIPWDA [YNL295W 201-214]
82 | 382 | PYMYKYLPRFPNLK [YPL137C 764-777]
83 | 188 | PVPVRMQPQPPQPM [YBR108W 383-396]
84 | 186 | PQQNRPLPQLPNRN [YOR181W 307-320]
85 | 634 | PPRFKNFPTLPSKI [YLL015W 59-72]
86 | 607 | QATGRRGPAPPPPP [YOR181W 378-391]
87 | 191 | PTANKYAPVSPTVQ [YPL085W 797-810]
88 | 3260 | PQTMRQAPKRPDAD [YNL298W 493-506]
89 | 523 | PSRSKSNPILPIMR [YLR319C 684-697]
90 | 150 | PPSIRKQPIAPDVL [YJR092W 754-767]
91 | 175 | PSHYRNIPYNPATF [YBR194W 90-103]
92 | 1470 | PVRSRVLPATPRQI [YKL086W 103-116]
93 | 413 | PRSKKKKPAPPTLL [YMR039C 165-178]
94 | 213 | PTVQKFSPHPPTTL [YER144C 362-375]
95 | 107 | PSSKKNKPNPPPGS [YJL056C 176-189]
96 | 561 | PSAMKLVPSIPPAT [YBR154C 118-131]

Target: T6, Yfr024 SH3 (LSB3_YEAST), P43603
Experiment: SPOT array

Row | normalised SPOT signal, Boehringer light units (BLU); mean over the file's lines of this peptide | Binder
97 | 65.5 | PSSHKRKPVIPWDA [YNL295W 201-214]
98 | 1150 | PYMYKYLPRFPNLK [YPL137C 764-777]
99 | 1650 | PVPVRMQPQPPQPM [YBR108W 383-396]
100 | 36200 | PQQNRPLPQLPNRN [YOR181W 307-320]
101 | 2550 | PPRFKNFPTLPSKI [YLL015W 59-72]
102 | 49.6 | QATGRRGPAPPPPP [YOR181W 378-391]
103 | 0 | PTANKYAPVSPTVQ [YPL085W 797-810]
104 | 15700 | PQTMRQAPKRPDAD [YNL298W 493-506]
105 | 1260 | PSRSKSNPILPIMR [YLR319C 684-697]
106 | 450 | PPSIRKQPIAPDVL [YJR092W 754-767]
107 | 100 | PSHYRNIPYNPATF [YBR194W 90-103]
108 | 15900 | PVRSRVLPATPRQI [YKL086W 103-116]
109 | 157 | PRSKKKKPAPPTLL [YMR039C 165-178]
110 | 10.2 | PTVQKFSPHPPTTL [YER144C 362-375]
111 | 49.2 | PSSKKNKPNPPPGS [YJL056C 176-189]
112 | 251 | PSAMKLVPSIPPAT [YBR154C 118-131]
